Measured values as given in publication PMC8982139.

Assays:
[1] = biological target: C.1086 UFO-v2 gp140 trimer (UFO with E64K/T316W/A433P) (HIV-1 (clade C, C.1086)); assay: SEC
[2] = biological target: C.1086 UFO-v2-RQH^173 gp140 trimer (UFO-v2 with K166R/H170Q, H173 kept) (HIV-1 (clade C, C.1086)); assay: native gel or EMSA
[3] = biological target: C.1086 UFO-v2-RQH^173 gp140 trimer (UFO-v2 with K166R/H170Q, H173 kept) (HIV-1 (clade C, C.1086)); assay: negative-stain electron microscopy
[4] = biological target: C.1086 UFO-v2-RQH^173 gp140 trimer (UFO-v2 with K166R/H170Q, H173 kept) (HIV-1 (clade C, C.1086)); assay: SEC
[5] = biological target: C.1086 NFL (native flexibly linked, with I559P) gp140 trimer (HIV-1 (clade C, C.1086)); assay: SEC
[6] = biological target: C.1086 SOSIP gp140 (HIV-1 (clade C, C.1086)); assay: SEC
[7] = biological target: C.1086 UFO-v2-RQY^173 gp140 trimer (UFO-v2 with K166R/H170Q/H173Y) (HIV-1 (clade C, C.1086)); assay: native gel or EMSA
[8] = biological target: C.1086 UFO-v2-RQY^173 gp140 trimer (UFO-v2 with K166R/H170Q/H173Y) (HIV-1 (clade C, C.1086)); assay: negative-stain electron microscopy

## C.1086 UFO-v2 gp140 trimer (UFO with E64K/T316W/A433P)
[1]
  stoichiometry N: 3

## C.1086 UFO-v2-RQH^173 gp140 trimer (UFO-v2 with K166R/H170Q, H173 kept)
[2]
  stoichiometry N: 3
[3]
  stoichiometry N: 3
[4]
  stoichiometry N: 3

## C.1086 NFL (native flexibly linked, with I559P) gp140 trimer
[5]
  stoichiometry N: 3

## C.1086 SOSIP gp140
[6]
  stoichiometry N: 3

## C.1086 UFO-v2-RQY^173 gp140 trimer (UFO-v2 with K166R/H170Q/H173Y)
[7]
  stoichiometry N: 3
[8]
  stoichiometry N: 3
